# “Also recorded” adds a separate entry of the source.
# Key:
# [1] = biological target: T1, 55 kDa lung vascular surface protein (Mus musculus, UniProt P31428); assay: peptide affinity chromatography of in vivo biotinylated lung extract; format: binding; settings: elution with GFE-1 peptide
# T1 construct: from tissue; host or cells: Balb/c mouse lung, in vivo biotinylated, octylglucoside extract
# T1 sequence (P31428 17-384): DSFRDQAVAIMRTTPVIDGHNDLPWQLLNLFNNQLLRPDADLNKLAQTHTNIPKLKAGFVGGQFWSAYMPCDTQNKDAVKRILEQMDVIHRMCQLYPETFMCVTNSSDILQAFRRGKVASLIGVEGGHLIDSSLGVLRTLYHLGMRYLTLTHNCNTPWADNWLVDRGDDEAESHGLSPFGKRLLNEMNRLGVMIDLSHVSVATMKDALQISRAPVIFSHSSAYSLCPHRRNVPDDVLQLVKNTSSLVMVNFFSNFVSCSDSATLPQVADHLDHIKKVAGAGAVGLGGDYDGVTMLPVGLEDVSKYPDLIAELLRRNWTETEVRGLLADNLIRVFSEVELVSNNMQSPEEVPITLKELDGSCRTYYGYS
# Procedure: In vivo biotinylation of endothelial cell surface proteins was performed as previously described in De La Fuente et al., Am. J. Physiol. […] Briefly, Balb/c mice were anesthetized with Avertin and perfused slowly through the heart for 10 to 15 minutes with approximately 15 ml of PBS containing 0.5 mg/ml of sulfo-NHS-LC-biotin (Pierce; Rockford, Ill.). Well perfused lungs or control tissues such as brain were then collected and incubated on ice for 20 minutes. The tissues were then homogenized for preparation of extracts as described further below.
# For preparation of extracts, mouse or rat lungs were first minced and then homogenized with a Brinkman homogenizer (Brinkman; Wesbury, N.Y.) in a minimal volume (2.5 ml/g of tissue) of cold PBS containing 100 mM N-octyl-β-D-glucopyranoside (Calbiochem; La Jolla, Calif.) with 1 mM phenylmethylsulfonyl fluoride (PMSF), 20 μg/ml aprotinin and 1 μg/ml leupeptin (PBS/octylglucoside). The homogenized tissue was incubated on ice for 2 hours, and then centrifuged at 12,000×g for 30 minutes to remove cell debris. The pooled supernatants were cleared of any debris prior to affinity chromatogaphy.
# All steps were performed at 4° C. […] The matrix contained approximately 2 mg/ml of peptide. […] The extract was applied to the column, and the flow-through re-applied over a period of 90 minutes. The column was then washed with 20 volumes of column buffer. […]
# [2] = biological target: T2, murine MDP (Mus musculus, UniProt P31428); assay: phage binding to COS-1 cells transfected with MDP
# T2 construct: The amplified 1.3 kb murine MDP cDNA was digested with KpnI and XbaI, and inserted into the same sites of the pcDNA3 expression vector; expressed in transfected cells; host or cells: COS-1 cells, pcDNA3 expression vector
# T2 sequence (P31428 17-384): T1 sequence (P31428 17-384)
# Procedure: The COS-1 cell line, which is known to have low or no detectable level of MDP activity, has been used extensively to study MDP structure and function (Keynan et al., supra, 1996; Keynan et al., Biochem, J. 326:47-51 (1997)). COS-1 cells were trasfected with murine MDP and used to assay binding to SEQ ID NOS: 1 and 2 as described below.
# For transfection into COS-1 cells, a murine MDP expression vector was prepared as follows. Total mouse lung RNA was isolated using Qiagen RNA purification columns (Qiagen; Santa Clarita, Calif.) and used as a template for first strand cDNA synthesis with reverse transcriptase and a mixture of random hexamers and poly-dT oligonucleotides (GIBCO/BRL; Grand Island, N.Y.). Mouse MDP cDNA (Pasqualini et al., J. Cell Biol. 130:1189-1196 (1995)) was amplified from the cDNA pool by PCR using the oligonucleotide pair: […] (SEQ ID NO: 446), which contains a KpnI adaptor, and […] (SEQ ID NO: 447), which contains an XbaI adaptor, using Taq polymerase from GIBCO/BRL. The amplified 1.3 kb murine MDP cDNA was digested with KpnI and XbaI, and inserted into the same sites of the pcDNA3 expression vector (Invitrogen; Carlsbad, Calif.) using DNA restriction enzymes and T4 DNA ligase from New England Biolabs (Beverly, Mass.). Successful cloning of the murine MDP cDNA was confirmed by DNA sequencing. Transfection of the COS-1 cells was performed with the Superfect Reagent from Qiagen as recommended by the manufacturer.
# Phage binding to COS-1 cells transfected with MDP was determined as follows. Briefly, 10^7 COS-1 cells were transfected with 10 μg of either the MDP expression vector or the vector alone. After 48 hours, cells were scraped gently from the dish, washed once, and subjected to the phage binding assay or membrane dipeptidase activity assay described above. For the phage binding assay, 5×10^6 cells and 10^10 transducing units (TU) of phage input were used. For measurement of membrane dipeptidase activity, 10^6 cells were lysed in 100 μl of PBS/octylglycoside without protease inhibitors. A 10 μl aliquot of the extract was used to measure MDP activity.
sequence,measurement,setting,value
CGFECVRQCPERC [lung homing peptide],binding of lung surface protein to peptide affinity column,[1],a 55 kDa biotinylated protein was selectively eluted; also recorded: specifically binds to a 55 kDa lung vascular surface protein
same,phage bound to MDP transfected cells than to mock transfected cells,"[2]; 5×10^6 COS-1 cells, 10^10 TU phage",4 fold
same,inhibition of binding of GFE-1 and GFE-2 phage to MDP-transfected cells,[2]; data not shown,completely inhibited

# From patent US6784153B1, “Methods of homing molecules to lung using membrane dipeptidase” (The Burnham Institute, priority 1998, dated 2004)
